Results: IntAct's records for PubMed 15604664

B1: Floral homeotic protein … (Arabidopsis thaliana (Mouse-ear cress)), P48007 (parent)
chain: MGRGKIEIKRIENANNRVVTFSKRRNGLVKKAKEITVLCDAKVALIIFASNGKMIDYCCPSMDLGAMLDQYQKLSGKKLWDAKHENLSNEIDRIKKENDSLQLELRHLKGEDIQSLNLKNLMAVEHAIEHGLDKVRDHQMEILISKRRNEKMMAEEQRQLTFQLQQQEMAIASNARGMMMRDHDGQFGYRVQPIQPNLQEKIMSLVID

Variants of: B1
Settings: with sep3_arath SEP3, O22456
Sequence of sep3_arath SEP3, O22456 (O22456 whole entry): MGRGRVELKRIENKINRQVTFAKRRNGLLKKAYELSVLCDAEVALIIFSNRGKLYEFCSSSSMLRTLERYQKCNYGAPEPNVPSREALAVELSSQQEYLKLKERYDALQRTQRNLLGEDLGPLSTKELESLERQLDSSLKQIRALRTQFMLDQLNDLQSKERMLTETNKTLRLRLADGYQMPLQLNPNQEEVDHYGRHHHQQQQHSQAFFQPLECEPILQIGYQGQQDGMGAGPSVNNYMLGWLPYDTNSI

Variant | effect of a mutation on the interaction
MGRGKIEIKRIENANNRVVTFSKRRNGLVKKAKEITVLCDAKVALIIFASNGKMIDYCCPSMDLGAMLDQYQKLSGKKLWDAKHENLSNEIDRIKKENDSLPLELRHLKGEDIQSLNLKNLMAVEHAIEHGLDKVRDHQMEILISKRRNEKMMAEEQRQLTFQLQQQEMAIASNARGMMMRDHDGQFGYRVQPIQPNLQEKIMSLVID [Q102P] | decreasing interaction
MGRGKIEIKRIENANNRVVTFSKRRNGLVKKAKEITVLCDAKVALIIFASNGKMIDYCCPSMDLGAMLDQYQKLSGKKLWDAKHENLSNEIDRIKKENDSLQLELRHLKPEDIQSLNLKNLMAVEHAIEHGLDKVRDHQMEILISKRRNEKMMAEEQRQLTFQLQQQEMAIASNARGMMMRDHDGQFGYRVQPIQPNLQEKIMSLVID [G110P] | decreasing interaction
MGRGKIEIKRIENANNRVVTFSKRRNGLVKKAKEITVLCDAKVALIIFASNGKMIDYCCPSMDLGAMLDQYQKLSGKKLWDAKHENLSNEIDRIKKENDSLQPELRHLKGEDIQSLNLKNLMAVEHAIEHGLDKVRDHQMEILISKRRNEKMMAEEQRQLTFQLQQQEMAIASNARGMMMRDHDGQFGYRVQPIQPNLQEKIMSLVID [L103P] | decreasing interaction
MGRGKIEIKRIENANNRVVTFSKRRNGLVKKAKEITVLCDAKVALIIFASNGKMIDYCCPSMDLGAMLDQYQKLSGKKLWDAKHENLSNEIDRIKKENDSLQLELRHLKGEDIQSPNLKNLMAVEHAIEHGLDKVRDHQMEILISKRRNEKMMAEEQRQLTFQLQQQEMAIASNARGMMMRDHDGQFGYRVQPIQPNLQEKIMSLVID [L116P] | decreasing interaction
MGRGKIEIKRIENANNRVVTFSKRRNGLVKKAKEITVLCDAKVALIIFASNGKMIDYCCPSMDLGAMLDQYQKLSGKKLWDAKHENLSNEIDRIKKENDSLQLELRHLKGEDIQSLNLKNLMAVEHAIEHGLDKVRDHQMEPLISKRRNEKMMAEEQRQLTFQLQQQEMAIASNARGMMMRDHDGQFGYRVQPIQPNLQEKIMSLVID [I142P] | decreasing interaction
MGRGKIEIKRIENANNRVVTFSKRRNGLVKKAKEITVLCDAKVALIIFASNGKMIDYCCPSMDLGAMLDQYQKLSGKKLWDAKHENLSNEIDRIKKENDSLQLELRHLKGEDIQSLNLKNLMAVEHAIEHPLDKVRDHQMEILISKRRNEKMMAEEQRQLTFQLQQQEMAIASNARGMMMRDHDGQFGYRVQPIQPNLQEKIMSLVID [G131P] | decreasing interaction
MGRGKIEIKRIENANNRVVTFSKRRNGLVKKAKEITVLCDAKVALIIFASNGKMIDYCCPSMDLGAMLDQYQKLSGKKLWDAKHENLSNEIDRIKKENDSLQLELRHLKGEDIQSLNLKNLMAVEHAIEHGPDKVRDHQMEILISKRRNEKMMAEEQRQLTFQLQQQEMAIASNARGMMMRDHDGQFGYRVQPIQPNLQEKIMSLVID [L132P] | decreasing interaction
MGRGKIEIKRIENANNRVVTFSKRRNGLVKKAKEITVLCDAKVALIIFASNGKMIDYCCPSMDLGAMLDQYQKLSGKKLWDAKHENPSNEIDRIKKENDSLQLELRHLKGEDIQSLNLKNLMAVEHAIEHGLDKVRDHQMEILISKRRNEKMMAEEQRQLTFQLQQQEMAIASNARGMMMRDHDGQFGYRVQPIQPNLQEKIMSLVID [L87P] | decreasing interaction

Further lines, results first:

effect of a mutation on the interaction | Variant
increasing interaction | MGRGKIEIKRIENANNRVVTFSKRRNGLVKKAKEITVLCDAKVALIIFASNGKMIDYCCPSMDLGAMLDQYQKLSGKKLWDAKHENLSNEIDRIKKENDSLQLELRHLKGEDIQSLNLKNLMAVEHAIEHGLDKVRDHQMEILISKRRPEKMMAEEQRQLTFQLQQQEMAIASNARGMMMRDHDGQFGYRVQPIQPNLQEKIMSLVID [N149P]
increasing interaction | MGRGKIEIKRIENANNRVVTFSKRRNGLVKKAKEITVLCDAKVALIIFASNGKMIDYCCPSMDLGAMLDQYQKLSGKKLWDAKHENLSNEIDRIKKENDSLQLELRHLKGEDIQSLNLKNLMAVEHAIEHGLDKVRDHQMEILISKRRNEKMMAEEQRQLTFQLQQQEMAIASNARPMMMRDHDGQFGYRVQPIQPNLQEKIMSLVID [G177P]
decreasing interaction | MGRGKIEIKRIENANNRVVTFSKRRNGLVKKAKEITVLCDAKVALIIFASNGKMIDYCCPSMDLGAMLDQYQKLSGKKLWDAKHENLSNEIDRIKKENDSLQLELRHLKGEDIQSLNLKNLMAVEHAIEHGLDKVRDHQMEILISKRRNEKMMPEEQRQLTFQLQQQEMAIASNARGMMMRDHDGQFGYRVQPIQPNLQEKIMSLVID [A154P]
decreasing interaction | MGRGKIEIKRIENANNRVVTFSKRRNGLVKKAKEITVLCDAKVALIIFASNGKMIDYCCPSMDLGAMLDQYQKLSGKKLWDAKHENLSNEIDRIKKENDSLQLELRHLKGEDIQSLNLKNLMAVEHAIEHGLDKVRDHQMEILIPKRRNEKMMAEEQRQLTFQLQQQEMAIASNARGMMMRDHDGQFGYRVQPIQPNLQEKIMSLVID [S145P]
increasing interaction | MGRGKIEIKRIENANNRVVTFSKRRNGLVKKAKEITVLCDAKVALIIFASNGKMIDYCCPSMDLGAMLDQYQKLSGKKLWDAKHENLSNEIDRIKKENDSLQLELRHLKGEDIQSLNLKNLMAVEHAIEHGLDKVRDHQMEILISKRRNEKMMAEEQRQPTFQLQQQEMAIASNARGMMMRDHDGQFGYRVQPIQPNLQEKIMSLVID [L160P]
increasing interaction | MGRGKIEIKRIENANNRVVTFSKRRNGLVKKAKEITVLCDAKVALIIFASNGKMIDYCCPSMDLGAMLDQYQKLSGKKLWDAKHENLSNEIDRIKKENDSLQLELRHLKGEDIQSLNLKNLMAVEHAIEHGLDKVRDHQMEILISKRRNEKMMAEEQRQLTFQLQQPEMAIASNARGMMMRDHDGQFGYRVQPIQPNLQEKIMSLVID [Q167P]
decreasing interaction | MGRGKIEIKRIENANNRVVTFSKRRNGLVKKAKEITVLCDAKVALIIFASNGKMIDYCCPSMDLGAMLDQYQKLSGKKLWDAKHENLSNEIDRIKKENDSLQLELRHLKGEDIQSLNLKNLMAVEHAIEHGLDKVRDHQMEILISKRRNEKMPAEEQRQLTFQLQQQEMAIASNARGMMMRDHDGQFGYRVQPIQPNLQEKIMSLVID [M153P]

Variants of: B1
Settings: with sep3_arath SEP3, O22456
Remark: another data set of the same source

Variant | effect of a mutation on the interaction
MGRGKIEIKRIENANNRVVTFSKRRNGLVKKAKEITVLCDAKVALIIFASNGKMIDYCCPSMDLGAMLDQYQKLSGKKLWDAKHENLSNEIDRIKKENDSLQLELRHLKGEDIQSLNLKNLMAVEHAIKHGPDKVRDHQMEILISKRRNEKMMAEEQRQLTFQLQQQEMAIASNARGMMMRDHDGQFGYRVQPIQPNLQEKIMSLVID [E129K;L132P] | decreasing interaction
MGRGKIEIKRIENANNRVVTFSKRRNGLVKKAKEITVLCDAKVALIIFASNGKMIDYCCPSMDLGAMLDQYQKLSGKKLWDAKHENLSNEIDRIKKENDSLQLELRHLKGEDIQFLNLIILMAVEHAIEHGLDKVRDHQMEILISKRRNEKMMAEEQRQLTFQLQQQEMAIASNARGMMMRDHDGQFGYRVQPIQPNLQEKIMSLVID [S115F;K119I;N120I] | decreasing interaction
MGRGKIEIKRIENANNRVVTFSKRRNGLVKKAKEITVLCDAKVALIIFASNGKMIDYCCPSMDLGAMLDQYQKLSGKKLWDAKHENLSNEIDRIKKENDSLQLELRHLKGEDIQSLNLKNLMAVEHAIEHGLDKVRDHQMRILISKRRNEKMMAEEQRQLTFQLQQQEMAIASNARGMMMRDHDGQFGYRVQLIQPNLQEKIMSLVID [E141R;P193L] | decreasing interaction
MGRGKIEIKRIENANNRVVTFSKRRNGLVKKAKEITVLCDAKVALIIFASNGKMIDYCCPSMDLGAMLDQYQKLSGKKLWDAKHENLSNEIDRIKKENDSLQLELRHLKGEDIQSPNLKNLMAVEHAIEHGLDKVRDHQMEILISKRRNEKTMAEEQRQLTFQLQQQEMAIASNARGMMMRDHDGQFGYRVQPIQPNLQEKIMSLVID [L116P;M152T] | decreasing interaction
MGRGKIEIKRIENANNRVVTFSKRRNGLVKKAKEITVLCDAKVALIIFASNGKMIDYCCPSMDLGAMLDQYQKLSGKKLWDAKHENLSNEIDRIKKENDSLQLELRHLKGEGIQSLNLKNLMAVEHAIEHGLDKVRDHQMEILISKRRNEKMMAEEQRQLTFQLQQQEMAIASNAGGMMMRDHDGQFGYRVQPIQPNLQEKIMSLVID [D112G;R176G] | decreasing interaction
MGRGKIEIKRIENANNRVVTFSKRRNGLVKKAKEITVLCDAKVALIIFASNGKMIDYCCPSMDLGAMLDQYQKLSGKKLWDAKHENLSNEIDRIKKENDSLQLELRHLKGEDIQSLNLKNLMAVEHAFEHGLDKVRDHQMEILISKRRNEKMMAEEQRQLTFQLQQQEMAIASNARGMMMRDHDGQFGYRVQPIQPNLQEKIMSLVID [I128F] | decreasing interaction
MGRGKIEIKRIENANNRVVTFSKRRNGLVKKAKEITVLCDAKVALIIFASNGKMIDYCCPSMDLGAMLDQYQKLSGKKLWDAKHENLSNEIDRIKKENDSLQLELRHLKGEDIQSLNLKNLMAVEHAVEHGLDKVRDHQMEILISKRRNEKMMAEEQRQLTFQLQQQEMAIASNARGMMMRDHDGQFGYRVQPIQPNLQEKIMSLVID [I128V] | decreasing interaction

Continued, values first:

effect of a mutation on the interaction | Variant
decreasing interaction | MGRGKIEIKRIENANNRVVTFSKRRNGLVKKAKEITVLCDAKVALIIFASNGKMIDYCCPSMDLGAMLDQYQKLSGKKLWDAKHENLSNEIDRIKKENDSLQLELRHLKGEDIQSLNLKNLMAVEHAIEHGLDKVRDHQMEILISKRRNEKMMAEEQRQLTFQQQQQEMAIASNARGMMMRDHDGQFGYRVQPIQPNLQEKIMSLVID [L164Q]
decreasing interaction | MGRGKIEIKRIENANNRVVTFSKRRNGLVKKAKEITVLCDAKVALIIFASNGKMIDYCCPSMDLGAMLDQYQKLSGKKLWDAKHENLSNEIDRIKKENDSLQLELRHLKGEDIQSLNLKNLMAVEHAIEHGLDKVRDHQMEILISKRRNEEMMAEEQRQLTFQLQQQEMAIASNARGMMMRDHDGQFGYRVQPIQPNLQEKIMSLVID [K151E]
decreasing interaction | MGRGKIEIKRIENANNRVVTFSKRRNGLVKKAKEITVLCDAKVALIIFASNGKMIDYCCPSMDLGAMLDQYQKLSGKKLWDAKHENLSNEIDRIKKENDSLQLELRHLKGEDIQSLNLKNLMAVEHAIEHGLDKVRDHQMEILISKRRNEKMMPEEERQLTLQLQQQEMAIASNARGMMMRDHDGQFGYRVQPIQPNLQEKIMSLVID [A154P;Q157E;F162L]
decreasing interaction | MGRGKIEIKRIENANNRVVTFSKRRNGLVKKAKEITVLCDAKVALIIFASNGKMIDYCCPSMDLGAMLDQYQKLSGKKLWDAKHENLSNEIDRIKKENDSLQLELRHLKGEDIQSLNLKNLMAVEHAIEHGLDKVRDHQMEILISKRRNEKMMAEEQQQLTFQLQQQVMAIASNARGMMMRDHDGQFGYRVQPIQPNLQEKIMSLVID [R158Q;E168V]
